Laboratory results as given in the nanobody polyreactivity screen of Harvey et al. (2022).

Test: yeast display, Sf9 membrane polyspecificity reagent, FACS + sequencing; frameworks hold sequencing errors
How it was run: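 Using colony PCR, genes from sorted yeast display clones were amplified, then sequenced on MiSeq at 2 × 250 and filtered by CDR length. The clones had been stained with 10% biotinylated, detergent-solubilized Sf9 membrane reagent for 1 hour at 4 °C and sorted by FACS into low and high (top ~1%) gates on anti-HA and streptavidin fluorescence. Polyreactivity labels come from the gate of origin.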

Sequence | polyreactivity (PSR sort gate)
QVQLVESGGGLVQAGGSLRLSCAASGSTLYYNAMGWYRQAPGKERELVAAITSGGSTSYADSVKGRFTISRDNAKNTVSFQMYSLKPEDTAVYYCAAVFYRRFDNWGQGTQVTVSS | low polyreactivity
QVQLVESGGGLVQAGGSLRLSCAASGFIFSYYTMGWYRQAPGKEWEVVAAIRSSGGSTYADSVKGRFTISRDNAKNTVYLQKNSLKPEDTAVYYCAAVQTWRWVYARDYWGQGTQVTVSS | high polyreactivity
QVQLVESGGGLVQAGGSLRLSCAASGRTFSGYAMGWYRQAPGKERELVAAITRRGGTTYYADSVKGRFTISRDNAKNTVYLQMNSLKPEDTAVYYCAAAKPRVISQNIIYDYWGQGTQVTVSS | high polyreactivity
QVQLVESGGGLVQAGGSLRLSCAASGFIFDYNTMGWYRQEPGKERELVADISGGGGRTYYADSVKGRFTISRDNAKNTVYLQMNSLKPEDTAVYYCAALGYYHHAWWISYDYWGQGTQVTVSS | low polyreactivity
QVQLVESGGGLVQAGGSLRLSCAASGSTYYYNAMGWYRQAPGKERELVARISRSGGSTYADSVKGRFSISRDNAKNTVYLQMNSLKPEDTAVYYCNAYAYGTPEFTSYAVRYDYWGQGTQVTVSS | low polyreactivity
QVQLVESGGGLDQAGGSLRLICAASGLTFYLYAMGWYRQAPGKERELVAAISTRGGSTRYADSVKGRFTISRDNAKNTVYLQMNSLKPEDTAVFDCNAVSKWLEYDYWGQGTQVTVSS | high polyreactivity
QVQLVESGGGLVQAGGILRLSCAASGSIFYHYAMGWYRQAPGKDREFVAAITRRGTSTYYADSVKGRFTISRDIAKKTVYLQMNSLKPEDTAVYYWAARYGPNMDYWGQGTQVTVSS | high polyreactivity
QVQLVESGGGLVQAGGSLRLSCAASGRTLSYYAMGWYRQAPGKEREFVAAITGSGGSTYYADSVKGRFTISRDNAKYTVYLQMNSLKPEDTAVYYCNAKGLGVFTVEYYYWGQGTQVTVSS | low polyreactivity
QVQLVESWGGLVQAGGSLRLSCAASGSTFGKYAMGWYRQAPGKERELVAAISYRGGRTFYADSVKGRFTISRDNAKNTVYLQMNSLKPEDTAVYYCAAYPGVSRGTGPRRYDYWGQGTQVTVSS | high polyreactivity
QVQLVESGGGLVQAGGSLRLSCAASGRTFGGYTMGWYRKAPGKERELVAAISKRGGSTYYADSVKGRFTISRDNAKNTVYLQMNSLKPEDTAVYYCARDVRTVIVSTGYDYWGQGTQVTVSS | high polyreactivity
QVQLQESGGGLVNAGGSLRLSCAASGTISFINMMGWYRQAPGRERELVASINFGANTNYADSVKGRFTISRDNAKNTVYLQMNSLKPEDTAVYYCAVYDFDAYTLYYWGQGTLVTVSS | high polyreactivity
QVQLVESGGGLEQAGGSLRLSCAASGITLRVNAMGWYRQAPGKERELVAAITRGTNTYYADSVKGRFTISRDNAKNTVYLQMNSLKPEDTAVYYCAARLPYNAIGYYYWGQGTQVTVSS | low polyreactivity
QVQLVESGGGLVQAGGSLRLSCAASGRTFRRYAMGWYRQAPGKERELVAVITRGGNTNYADSVKGRFTISRDNAKNTVYLQMNSLKPEDTAVYYCAAELYNYGYDYWGQGTQVTVSS | low polyreactivity
QVQLVETGGGLVQAGGSLRISCAASGIIFRNYAKGWYTQAPGKERELVADISWSGGTTYYADSVKGRFTISRDNEKHTVYLQMNSLKPEDTAVYYCAASSYRRQYGYWGQGTQVTVSS | high polyreactivity
QVQLVESGGGLVQAGGSLSLSCAASGLIFLQYGMGWYREAPGKERELVAAITTRGGRTYYADSVKRRFTISRDNAKNTVYLQMNSLKPEDTAVYYCAADSEQDNLRYYRWVWYYYWGQGTQVTVSS | low polyreactivity
QVQLVESGGGLVQAGGSLRLSCAASGRNFSYYAMGWYRQAPGKERELVAFISSGGNTYYADSVKGRFTISRDNAKNTVYLPMNSLKPEDTAVYYSGADPNAQGYPQVNYWGQGTQVTVSS | high polyreactivity
QVQLVESGGGLVQAGGSLRLSCAASGITFFFNAMGWYRQAPGKERELVAAITSGGGSTYYADSVKGRFTISRDNAKNTVYLQMNSLKPEDTAVYYCNADFSKSYDYWGQGTQVTVSS | low polyreactivity
QVQLVESGGGLVQAGGSLRLTCAASGSTFSKNAMGWYRQATGNERELVASISSSVGSTYYSDSVKGRFTISRDNAKNTVYLQMNSLKPEDTAVYYCATRRGRGYYYWGQGTQVTVSS | high polyreactivity
QVQLVESGGGLVQAGGSLRLSCAASGRTIYSNAMGWYRQPPGKERELVAAITGSSGSTYYADSVKGRFTISRDNAKNTVYLQMNSLKPEDTAVYYCAASCYCSLVRQLRLRGQGTQVTVSS | low polyreactivity
QVQLVESGGGLVQAGGSLRLSCAASGFIITSYAMGWYRQAPGKERELVAAIRRTGGTYYADSVKGRFTISRDNAKNTVYLQMNSLKPEDTAVYYCNTRLSYRNRGFDYWGQGTQVTVSS | high polyreactivity
QVQLVESGGGLVQAGGSLRLSCAASGRTFSGYVMGWYRQAPAKERELVAAIARNGGSRYYADSVKGRFTISRDKAKNTVYLQMNSLTPEDTAVYYCAADASCWRRHYYWGQGTQVTVSS | high polyreactivity
QVQLVESGGGLVQAGGSLRLSCAASGRIFVYYAMGWYRQAPGKEREFVAAISSRDDSTYYADSVKGRFTISRDNAKNTVYLQMNSLKPEDTAVYYCAADWRLGVGYDYWGQGSQVTVSS | low polyreactivity

Sequence | polyreactivity (PSR sort gate)
QVQLVESGGGLVQEGRSLRLSCAASGRIFCFNVMGWYRQAPGKERELVATISGRTGSTYYADSVKGRFTISRDNAKNTVYLQMNSLKPEVTAVYYCNAVRTVNDYHYDYWGQVTQVTVSS | high polyreactivity
QVQLVESGGGLVQAGGSLRLSCAASGFTFLAYAMGWYRQAPGQERELVAAINSSDGTTHYADSVKGRFTISRDTAKNTVYLQMNSLKPEDTAVYYCAVSQVRTGEGYHYWGQGTQVTVSS | low polyreactivity
QVQLVESGGCLVQAGGSLRLRGAASGRIFGYYAMGWYRQAPGKEWELVAAISRGGSTNYADSVKGRFTISRDNAKNTVYLQMNSLKPEDTAVYYCAAVQRTHPRYYYWGQGTQVTVSS | high polyreactivity
QVQLVESGGGLVQAGGSLRLSCAASGSTFAYNDMGWYRLAPGKERELVADIRSGGNTNYADSVKGRFTISRDNAKNTVYLQMNSLKPEDTAVYYCATDGYRIDVYHPDYRYDYWGQGTQVTVSS | low polyreactivity
QVQLVESGGGLVQAGGSLRLSCAASGITFWSNAMGWYRQAPGKERELVAAITSSGGSAYYADSVKGRFTISRDNAKNTVYLQMNSLKPEDTAVYYCAAPISRSAGWDSYDYWGQGTQVTVSS | low polyreactivity
QVQLVESGGGLVQAGGSLRLSCAASGSIFWSYAMGWYRQATGKERELVAAITWSGGNTYADSVKGRFTISRDNAKNTVYLQMNSLKPEDTAVYYCAADPAHGTKWYVYPSHDDYWGQGTQVTVSS | low polyreactivity
QVQLVESGGGLVQAGGSLRLSCAASGSTFYRYAMGWYRQAPGKERELVAAISNSGGSTNYADSVKGRFTISRDNAKNTVYLQMNSLKPEDTAVYYCAADPYDLVWVEDYDYWGQGTQVTVSS | high polyreactivity
QVQLVESGGGLVQAGGSLRLSCAASGSIFRVYAMGWYRQAPGKERELVAAIRSGGGTNYADSVKGRFTISRDNAKITVYLQMNSLKPEDTAVYYCAREAATDISPGYDYWGQGTQVTVSS | low polyreactivity
QVQLVESGGGLVQAGGSLRLSCAASGSTFRYYALGWYRQAPGKERELVAAISTSGGRTYYADSVKGRFTISRDNAKNTVYLQMNSLKPEDTAVYYCNARESRGYAYQTWKYYYWGQGTQVTVSS | high polyreactivity
QVQLVESGGGLVQAGGSLRLSCAASGRIFSYYAMGWYRQAPGKERELVAAINSDGSTDYADSVKGRFTISRDNAKNTVYLQMNSLKPEDTAVYYCAKVWSLGPTGFRAYVRVWYYYWGVGTQVTVSS | low polyreactivity
QVQLVESGGGLVQAGGSLRLSCAASGRTIWYYAMGWYRQAPGNERELVASITRSGGSTYADSVQGRFPISRDNAKNTVYLQMNSLKPQDTAVYYCAVGAVVPGLRRRTYYYWGQGTQVTVSS | high polyreactivity
QVQRVESGGGLVQAGGSLRLSCAASGSTFYFYARGWYRQAPGKERELVAVITDGGAITYYADSVKGRFTISRDNAKNTVYLQMNSLKPEDTAVYYCAASSFGWYTRYDYWGQGTQVTVSS | high polyreactivity
QVQLVESGGGLVQAGGSLRLSCAASGFTFGRYALGWYRQPPGKERELVAVISWSGVSTYYADSVKGRFTISRDNAKNTVYLQMNSLKPEDTAVYYCNKRSYHYPYGYDYWGQGTQVTVSS | high polyreactivity
QVQLEESCGGLVQAGGSLRLSCAASGSIFGTYAMGLYRHAPGKEREFVADISGIGTSTYYADSVKGRFTISRDNAKNTVYLQMNSLKPEDTAVYYCAAESFDTVEYDYWGQGTQVTVSS | low polyreactivity
QVQLVESGGGLVQAGGSLRLSCAASGRIFYYYAMGWYRPAPGKERELVAAINRDGGRTYYADSVKGRFTISRDNAKNTVYLQMNSLKPEDTAVYYCAASYGYVYTTSLDYWGQGTQVTVSS | low polyreactivity
QVQLVESGGGLVQAGGSLRLSCAASGRIFTSYVMGWYRQAPGKERELVAAITRTGGSTYYADSVKGRFTISRDNAKNTVYLQMNSLKPEDTAVYYCNALTRRQKGGEGGGYWGQGTQVTVSS | high polyreactivity
QVQLVESGGGLVQAGGSLRLSCAASGSTFAQDALGWYRQAPGKERELVATISASGGTTYYADSVKGRFSISRDNAKNPVYLQMNSLKPEDTAVYYCAKRRVWWPAHRSYLYASEFGYWGQGTQVTVSS | low polyreactivity
QVQLVDSGGGLVQAGGSLRLSCAASGITFKRYAMGWYRQAPGKERELVAAITGIGGSTYYADSVKGRFTISSDNAKNTVYLQMNSLKPEDTAVYYCAARNNKKYDYWGQGTQVTVSS | high polyreactivity
QVQLVESGGGLFQAGGSLRLSSAASGIIFSTYAMGWYRQAHGKERELVAAITSTGSTNYADSVKGRFTISRDNAKNTVYLQMNSLKPEDTAVYYCAAEGHTAFLVYRVSPLQYDYWGQGTQVTVSS | low polyreactivity
QVQLVESGGGLVQAGGSLRLSCAASGRTFRYYAMGWYRQAPGKERELVAAISSSGDRTYYADSVKGRFTISRDNAKNTVYLQMNSLKPEDTAVYYCAADRGARGDYWGQGTQVTVSS | high polyreactivity
QVQLVESGGGLVQAGGSLRLSCAASGTIYDGYAMGWYRQAPGKERELVAAINTSGGTTYYADSENGRFTISRDKAKNNGYLQMNSLKPEETAVYYCNAHNHLPPYDYWGQGSQVTVSS | low polyreactivity
